Legend:
[1] = biological target: human ROR1 (full-length, on the cell surface) (human) (UniProt Q01973); experiment: flow cytometry, Jeko-1 cells (Table 5-2)
[2] = biological target: human ROR1 (full-length, on the cell surface) (human) (UniProt Q01973); experiment: flow cytometry on Ba/F3-ROR1 cells, MFI against antibody concentration
[3] = biological target: human ROR1 ECD protein (human) (UniProt Q01973); experiment: BLI (Octet), antibody on AHC sensor, ROR1 ECD in solution; average of two measurements
Sequence of human ROR1 ECD protein (human) (Q01973 30-406): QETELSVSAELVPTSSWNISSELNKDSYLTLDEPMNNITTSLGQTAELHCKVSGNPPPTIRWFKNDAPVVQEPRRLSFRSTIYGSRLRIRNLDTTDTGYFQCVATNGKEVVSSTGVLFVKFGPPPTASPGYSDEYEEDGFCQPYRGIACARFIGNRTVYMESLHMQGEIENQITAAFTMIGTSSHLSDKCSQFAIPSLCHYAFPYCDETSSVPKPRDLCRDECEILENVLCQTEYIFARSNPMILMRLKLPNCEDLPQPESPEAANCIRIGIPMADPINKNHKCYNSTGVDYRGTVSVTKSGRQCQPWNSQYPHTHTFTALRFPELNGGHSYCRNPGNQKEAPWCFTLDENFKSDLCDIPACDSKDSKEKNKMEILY

[4] = biological target: human ROR1 ECD protein (human) (UniProt Q01973); experiment: BLI (Octet), antibody on AHC sensor, ROR1 ECD in solution; average of three determinations
[5] = biological target: human ROR1 (full-length, on the cell surface) (human) (UniProt Q01973); experiment: flow cytometry, Ba/F3-ROR1 cells (Table 5-2)
[6] = biological target: human ROR1 (full-length, on the cell surface) (human) (UniProt Q01973); experiment: flow cytometry, A549 cells (Table 5-2)
[7] = biological target: human ROR1 (full-length, on the cell surface) (human) (UniProt Q01973); experiment: flow cytometry, HT-29 cells (Table 5-3)
[8] = biological target: human ROR1 (full-length, on the cell surface) (human) (UniProt Q01973); experiment: flow cytometry, A549 cells; average of two measurements
[9] = biological target: human ROR1 (full-length, on the cell surface) (human) (UniProt Q01973); experiment: flow cytometry, A549 cells (Table 5-1B)
[10] = biological target: human ROR1 (full-length, on the cell surface) (human) (UniProt Q01973); experiment: flow cytometry, A549 cells (Table 5-1A)
[11] = biological target: human ROR1 (full-length, on the cell surface) (human) (UniProt Q01973); experiment: flow cytometry on A549 cells, MFI against antibody concentration
[12] = biological target: human ROR1 (full-length, on the cell surface) (human) (UniProt Q01973); experiment: flow cytometry, Jeko-1 cells (Table 5-3)
[13] = biological target: human ROR1 (full-length, on the cell surface) (human) (UniProt Q01973); experiment: flow cytometry, Ba/F3-ROR1 cells; average of two measurements
[14] = biological target: human ROR1 (full-length, on the cell surface) (human) (UniProt Q01973); experiment: flow cytometry on Ba/F3-ROR1 cells, MFI against antibody concentration; remark: listed apart in the source
[15] = biological target: human ROR1 (full-length, on the cell surface) (human) (UniProt Q01973); experiment: flow cytometry, HT-29 cells; average of two measurements
[16] = biological target: human ROR1 (full-length, on the cell surface) (human) (UniProt Q01973); experiment: flow cytometry, HT-29 cells (Table 5-1A)
[17] = biological target: human ROR1 (full-length, on the cell surface) (human) (UniProt Q01973); experiment: flow cytometry, Ba/F3-ROR1 cells (Table 5-3)
[18] = biological target: human ROR1 (full-length, on the cell surface) (human) (UniProt Q01973); experiment: flow cytometry, Jeko-1 cells (Table 5-1B)
[19] = biological target: human ROR1 (full-length, on the cell surface) (human) (UniProt Q01973); experiment: flow cytometry, Jeko-1 cells; average of two measurements
[20] = biological target: human ROR1 (full-length, on the cell surface) (human) (UniProt Q01973); experiment: flow cytometry, Jeko-1 cells (Table 5-1A)
[21] = biological target: human ROR1 (full-length, on the cell surface) (human) (UniProt Q01973); experiment: flow cytometry, HT-29 cells (Table 5-1B)
[22] = biological target: human ROR1 (full-length, on the cell surface) (human) (UniProt Q01973); experiment: flow cytometry, Ba/F3-ROR1 cells (Table 5-1B)
[23] = biological target: human ROR1 (full-length, on the cell surface) (human) (UniProt Q01973); experiment: flow cytometry, Ba/F3-ROR1 cells (Table 5-1A)
[24] = biological target: human ROR1 (full-length, on the cell surface) (human) (UniProt Q01973); experiment: flow cytometry, A549 cells (Table 5-3)
[25] = biological target: human ROR1 (full-length, on the cell surface) (human) (UniProt Q01973); experiment: cell-based or functional assay
[26] = biological target: human ROR1 (full-length, on the cell surface) (human) (UniProt Q01973); experiment: flow cytometry, HT-29 cells (Table 5-2)

Sequence of human ROR1 (full-length, on the cell surface) (human) (Q01973 30-937): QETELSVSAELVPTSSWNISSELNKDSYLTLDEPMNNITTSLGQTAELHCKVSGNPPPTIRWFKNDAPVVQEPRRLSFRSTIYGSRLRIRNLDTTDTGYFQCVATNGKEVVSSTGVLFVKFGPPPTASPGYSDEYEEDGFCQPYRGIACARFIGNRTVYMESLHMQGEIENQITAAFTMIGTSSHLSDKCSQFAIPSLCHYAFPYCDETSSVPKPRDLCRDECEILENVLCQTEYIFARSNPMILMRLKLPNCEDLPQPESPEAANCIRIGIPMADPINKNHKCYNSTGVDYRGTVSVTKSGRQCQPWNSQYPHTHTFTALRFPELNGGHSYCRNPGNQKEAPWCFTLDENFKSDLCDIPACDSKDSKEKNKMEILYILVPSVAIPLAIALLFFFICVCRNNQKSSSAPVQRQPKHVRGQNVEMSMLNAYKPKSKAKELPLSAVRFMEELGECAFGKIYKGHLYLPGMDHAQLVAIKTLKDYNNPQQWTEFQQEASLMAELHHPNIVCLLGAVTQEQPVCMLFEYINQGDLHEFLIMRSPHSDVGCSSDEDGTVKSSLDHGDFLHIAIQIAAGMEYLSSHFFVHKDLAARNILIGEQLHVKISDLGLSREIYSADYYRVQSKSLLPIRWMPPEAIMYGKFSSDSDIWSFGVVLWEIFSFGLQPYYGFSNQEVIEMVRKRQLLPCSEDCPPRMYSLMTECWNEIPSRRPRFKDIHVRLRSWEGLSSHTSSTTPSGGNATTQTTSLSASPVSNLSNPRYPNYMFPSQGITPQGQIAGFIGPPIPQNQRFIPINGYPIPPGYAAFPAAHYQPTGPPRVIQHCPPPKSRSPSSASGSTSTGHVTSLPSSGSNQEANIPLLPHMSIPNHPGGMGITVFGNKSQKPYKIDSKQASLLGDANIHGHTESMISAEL

B1: anti-human ROR1 antibody UC961 (antibody, from another filing, V domains shown)
VH: QVQLQESGPGLVKPSQTLSLTCTVSGYAFTAYNIHWVRQAPGQGLEWMGSFDPYDGGSSYNQKFKDRLTISKDTSKNQVVLTMTNMDPVDTATYYCARGWYYFDYWGHGTLVTVSS
VL: DIVMTQTPLSLPVTPGEPASISCRASKSISKYLAWYQQKPGQAPRLLIYSGSTLQSGIPPRFSGSGYGTDFTLTINNIESEDAAYYFCQQHDESPYTFGEGTKVEIK
[1]
  EC50: 0.14 nM
[2]
  EC50 (read off the curve): 0.05 mg/L
[3]
  Kd: 15.8 nM
  koff: 0.0137 s⁻¹
  kon: 981000 M⁻¹ s⁻¹
[4]
  Kd: 8.73 nM
  koff: 0.0112 s⁻¹
  kon: 1.26e+06 M⁻¹ s⁻¹
[5]
  EC50: 0.31 nM
[6]
  EC50: 0.46 nM
[7]
  EC50: 0.37 nM
[8]
  EC50: 0.277 nM
[9]
  EC50: 0.16 nM
[10]
  EC50: 0.41 nM
[11]
  EC50 (read off the curve): 0.01 mg/L
[12]
  EC50: 0.06 nM
[13]
  EC50: 0.44 nM
[14]
  EC50 (read off the curve): 0.07 mg/L
[15]
  EC50: 0.267 nM
[16]
  EC50: 0.12 nM
[17]
  EC50: 1.07 nM
[18]
  EC50: 0.36 nM
[19]
  EC50: 0.447 nM
[20]
  EC50: 0.22 nM
[21]
  EC50: 0.2 nM
[22]
  EC50: 0.3 nM
[23]
  EC50: 0.62 nM
[24]
  EC50: 0.21 nM
[25]
  EC50 of ADCC killing of Ba/F3-ROR1 cells by NK92MI-mCD16a-hFceRI cells: 0.33 nM
[26]
  EC50: 0.21 nM

Source: US20240018237A1 (SICHUAN KELUN BIOTECH BIOPHARMACEUTICAL, published 2024)
